In the assay the target is T1, GST-Flag-SASPase 28 kDa recombinant protein (human) (UniProt Q53RT3).
T1 sequence: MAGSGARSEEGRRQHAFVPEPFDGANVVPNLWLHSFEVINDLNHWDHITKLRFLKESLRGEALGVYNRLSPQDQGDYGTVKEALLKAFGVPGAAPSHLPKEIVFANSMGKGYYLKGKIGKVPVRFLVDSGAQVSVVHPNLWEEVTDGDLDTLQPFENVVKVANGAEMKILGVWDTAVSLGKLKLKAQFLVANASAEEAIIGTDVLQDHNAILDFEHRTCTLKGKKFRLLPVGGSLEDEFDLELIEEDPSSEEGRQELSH

B1: recombinant protein FLG2Nter (aa 2-213) (domain or fragment)
chain: TDLLRSVVTVIDVFYKYTKQDGECGTLSKGELKELLEKELHPVLKNPDDPDTVDVIMHMLDRDHDRRLDFTEFLLMIFKLTMACNKVLSKEYCKASGSKKHRRGHRHQEEESETEEDEEDTPGHKSGYRHSSWSEGEEHGYSSGHSRGTVKCRHGSNSRRLGRQGNLSSSGNQEGSQKRYHRSSCGHSWSGGKDRHGSSSVELRERINKSHI
As to B1, the SASPase activity on Dabcyl-QIDRIMEK-Glu(Edans)-NH2 (0.1 mM), pH 5.5, 0.5 μM SASPase 28, FLG2Nter at ratios from 1.25 to 10; fold against the protease alone was 10 fold.

The values above are taken from PMC7241785.
